The target of the experiment is suppressor of MEK null (sMEK1), full-length human, pGilda fusion (human) (UniProt Q6IN85). The experiment is described as follows: two-hybrid; EGY48 yeast cells; pGilda-sMEK1 as bait, pJG4-5 fusions as prey; growth on medium lacking leucine, blue colonies on X-gal plates with 2% galactose, β-galactosidase activity with ONPG.
Sequence of UniProt Q6IN85 (Q6IN85 whole entry, the tested form may be a part): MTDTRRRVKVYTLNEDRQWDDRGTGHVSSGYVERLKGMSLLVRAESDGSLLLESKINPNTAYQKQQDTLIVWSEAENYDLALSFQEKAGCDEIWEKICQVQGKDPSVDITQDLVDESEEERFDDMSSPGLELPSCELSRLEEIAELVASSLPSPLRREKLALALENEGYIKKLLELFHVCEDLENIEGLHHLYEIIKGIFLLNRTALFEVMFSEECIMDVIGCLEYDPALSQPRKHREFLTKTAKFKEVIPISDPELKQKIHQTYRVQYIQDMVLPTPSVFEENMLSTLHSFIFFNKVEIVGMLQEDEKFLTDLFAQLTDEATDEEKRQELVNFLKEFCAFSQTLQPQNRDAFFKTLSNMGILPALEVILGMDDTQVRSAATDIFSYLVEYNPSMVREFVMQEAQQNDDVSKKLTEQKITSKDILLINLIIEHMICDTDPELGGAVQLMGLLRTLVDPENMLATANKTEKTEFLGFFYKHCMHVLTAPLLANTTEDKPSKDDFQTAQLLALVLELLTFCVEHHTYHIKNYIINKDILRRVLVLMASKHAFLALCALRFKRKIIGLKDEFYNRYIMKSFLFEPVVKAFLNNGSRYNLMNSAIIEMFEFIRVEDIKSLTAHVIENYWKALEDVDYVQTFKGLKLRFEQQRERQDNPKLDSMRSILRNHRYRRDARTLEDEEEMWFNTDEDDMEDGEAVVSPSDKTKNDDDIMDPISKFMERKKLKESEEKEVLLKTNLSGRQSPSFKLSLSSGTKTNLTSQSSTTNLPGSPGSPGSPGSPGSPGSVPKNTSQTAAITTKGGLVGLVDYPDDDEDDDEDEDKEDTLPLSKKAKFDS

Regarding “vascular endothelial growth factor receptor 2 (VEGFR-2), full-length human, yeast two-hybrid construct (from UniProt P35968 1-1356)”, the β-galactosidase activity amounted to 92.3 unit.

These data come from PMC4741643.
